Test results: US20240132624A1 (Ablynx, published 2024)
Substitutions are numbered along the chain they refer to.

B1: T0263018B11 S56L (VHH, name in Kabat numbering)
VHH: EVQLVESGGGVVQPGGSLRLSCAASGFTFSSYAMYWVRQAPGKGLEWVSAISSGGGLTDYADSVKGRFTISRDNSKNTLYLQMNSLRPEDTALYYCAADTLYTSLTWYSYWGQGTLVTVSS
notes: FLAG3-His6 tagged
B2: T0263018B11 S101T (VHH, name in Kabat numbering)
VHH: B1 VHH with L57S, S109T
notes: FLAG3-His6 tagged
B3: T0263018B11 S100K (VHH, name in Kabat numbering)
VHH: B1 VHH with L57S, S104K
notes: FLAG3-His6 tagged
B4: T0263018B11 T57W (VHH, name in Kabat numbering)
VHH: B1 VHH with L57S, T58W
notes: FLAG3-His6 tagged
B5: T0263018B11 S101V (VHH, name in Kabat numbering)
VHH: B1 VHH with L57S, S109V
notes: FLAG3-His6 tagged
B6: T0263018B11 S101E (VHH, name in Kabat numbering)
VHH: B1 VHH with L57S, S109E
notes: FLAG3-His6 tagged
B7: T0263018B11 S100M (VHH, name in Kabat numbering)
VHH: B1 VHH with L57S, S104M
notes: FLAG3-His6 tagged
B8: T0263018B11 T57L (VHH, name in Kabat numbering)
VHH: B1 VHH with L57S, T58L
notes: FLAG3-His6 tagged
B9: T0263018B11 T96A (VHH, name in Kabat numbering)
VHH: B1 VHH with L57S, T100A
notes: FLAG3-His6 tagged
B10: T0263018B11 T57I (VHH, name in Kabat numbering)
VHH: B1 VHH with L57S, T58I
notes: FLAG3-His6 tagged
B11: T0263018B11 T57N (VHH, name in Kabat numbering)
VHH: B1 VHH with L57S, T58N
notes: FLAG3-His6 tagged
B12: T0263018B11 T28W (VHH, name in Kabat numbering)
VHH: B1 VHH with T28W, L57S
notes: FLAG3-His6 tagged
B13: T0263018B11 T57S (VHH, name in Kabat numbering)
VHH: B1 VHH with L57S, T58S
notes: FLAG3-His6 tagged
B14: T0263018B11 S56T (VHH, name in Kabat numbering)
VHH: B1 VHH with L57T
notes: FLAG3-His6 tagged
B15: T0263018B11 S101M (VHH, name in Kabat numbering)
VHH: B1 VHH with L57S, S109M
notes: FLAG3-His6 tagged
B16: T0263018B11 T96F (VHH, name in Kabat numbering)
VHH: B1 VHH with L57S, T100F
notes: FLAG3-His6 tagged
B17: T0263018B11 T57F (VHH, name in Kabat numbering)
VHH: B1 VHH with L57S, T58F
notes: FLAG3-His6 tagged
B18: T0263018B11 T57P (VHH, name in Kabat numbering)
VHH: B1 VHH with L57S, T58P
notes: FLAG3-His6 tagged
B19: T0263018B11 T28Y (VHH, name in Kabat numbering)
VHH: B1 VHH with T28Y, L57S
notes: FLAG3-His6 tagged
B20: T0263018B11 S101W (VHH, name in Kabat numbering)
VHH: B1 VHH with L57S, S109W
notes: FLAG3-His6 tagged
B21: T0263018B11 T28N (VHH, name in Kabat numbering)
VHH: B1 VHH with T28N, L57S
notes: FLAG3-His6 tagged
B22: T0263018B11 S101A (VHH, name in Kabat numbering)
VHH: B1 VHH with L57S, S109A
notes: FLAG3-His6 tagged
B23: T0263018B11 S56Q (VHH, name in Kabat numbering)
VHH: B1 VHH with L57Q
notes: FLAG3-His6 tagged
B24: T0263018B11 T28P (VHH, name in Kabat numbering)
VHH: B1 VHH with T28P, L57S
notes: FLAG3-His6 tagged
B25: T0263018B11 S101Q (VHH, name in Kabat numbering)
VHH: B1 VHH with L57S, S109Q
notes: FLAG3-His6 tagged
B26: T0263018B11 S100Q (VHH, name in Kabat numbering)
VHH: B1 VHH with L57S, S104Q
notes: FLAG3-His6 tagged
B27: T0263018B11 T28L (VHH, name in Kabat numbering)
VHH: B1 VHH with T28L, L57S
notes: FLAG3-His6 tagged
B28: T0263018B11 T28V (VHH, name in Kabat numbering)
VHH: B1 VHH with T28V, L57S
notes: FLAG3-His6 tagged
B29: T0263018B11 T57V (VHH, name in Kabat numbering)
VHH: B1 VHH with L57S, T58V
notes: FLAG3-His6 tagged
B30: T0263018B11 S56V (VHH, name in Kabat numbering)
VHH: B1 VHH with L57V
notes: FLAG3-His6 tagged
B31: T0263018B11 T28I (VHH, name in Kabat numbering)
VHH: B1 VHH with T28I, L57S
notes: FLAG3-His6 tagged

The binders below were run against T1, human FcRn/b2M (human, UniProt P61769 21-119, biotinylated) (assay: SPR pH 6.0;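 note: surface plasmon resonance kinetics at 25 °C, diluted periplasmic extracts injected over immobilized ligand surfaces, 120 s association then 600–3600 s dissociation, running buffer containing 150 mM NaCl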).
T1 construct: bought recombinant biotinylated protein (ACRO FCM-H82W4 or Immunitrack ITF01); also called hFcRn; hFcRn/hb2M
T1 sequence (chain, as listed by the source limits assumed, chain 1 of 2): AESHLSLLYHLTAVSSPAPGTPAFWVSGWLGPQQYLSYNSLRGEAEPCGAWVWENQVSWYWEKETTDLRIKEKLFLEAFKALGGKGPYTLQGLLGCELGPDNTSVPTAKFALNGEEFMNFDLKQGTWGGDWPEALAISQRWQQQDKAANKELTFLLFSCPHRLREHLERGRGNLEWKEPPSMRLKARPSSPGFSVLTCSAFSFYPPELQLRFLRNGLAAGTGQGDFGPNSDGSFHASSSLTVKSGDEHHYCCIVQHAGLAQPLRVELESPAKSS
T1 sequence (P61769 21-119 limits assumed, chain 2 of 2): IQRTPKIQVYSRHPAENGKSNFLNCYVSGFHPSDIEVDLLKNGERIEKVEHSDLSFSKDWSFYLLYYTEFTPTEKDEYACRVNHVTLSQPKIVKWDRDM
Protocol: (§1) All kinetic measurements have been performed on ProteOn XPR36 (BioRad Laboratories, Inc.), MASS-2 (Sierra sensors, Gmbh) or SPR-32 (Bruker Corporation). […] The phytip purified periplasmic extracts were diluted 1:10 in running buffer (CPA+150 mM NaCl+0.005% Tw20 at pH 5.5, pH 6.0 or pH 7.4) and injected over the ligand surfaces (association: 120 s at 45 μL/min; dissociation: 600s-3600 s at 45 μL/min). Experiments were carried out at 25° C.

Binder	koff
B1	0.00075 s⁻¹
B2	0.00057 s⁻¹
B3	0.0032 s⁻¹
B4	0.0009 s⁻¹
B5	0.00073 s⁻¹
B6	0.00018 s⁻¹
B7	0.00056 s⁻¹
B8	0.0011 s⁻¹
B9	0.0039 s⁻¹
B10	0.0015 s⁻¹
B11	0.00086 s⁻¹
B12	0.00041 s⁻¹
B13	0.0011 s⁻¹
B14	0.0013 s⁻¹
B15	0.0011 s⁻¹
B16	0.0031 s⁻¹

Binder	koff
B17	0.00099 s⁻¹
B18	0.0015 s⁻¹
B19	0.0012 s⁻¹
B20	7e-05 s⁻¹
B21	0.0019 s⁻¹
B22	0.0017 s⁻¹
B23	0.0022 s⁻¹
B24	0.0015 s⁻¹
B25	0.00055 s⁻¹
B26	0.0019 s⁻¹
B27	0.0018 s⁻¹
B28	0.0032 s⁻¹
B29	0.00077 s⁻¹
B30	0.0013 s⁻¹
B31	0.0011 s⁻¹

What follows are binders tested against T2, cyno FcRn/b2M (cyno, UniProt Q8SPV9 24-297; Q8SPW0 21-119, biotinylated) (assay: SPR pH 6.0;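 note: surface plasmon resonance kinetics at 25 °C, diluted periplasmic extracts injected over immobilized ligand surfaces, 120 s association then 600–3600 s dissociation, running buffer containing 150 mM NaCl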).
T2 construct: bought recombinant biotinylated protein (Immunitrack ITF05 or ACRO FCM-C82W5); also called cFcRn; cFcRn/cb2M
T2 sequence (Q8SPV9 24-297 limits assumed, chain 1 of 2): as the sequence (chain, as listed by the source limits assumed, chain 1 of 2) above, with N39D, E44Q, G99S, S189G, S190N, L217M, S269T counted along it
T2 sequence (Q8SPW0 21-119 limits assumed, chain 2 of 2): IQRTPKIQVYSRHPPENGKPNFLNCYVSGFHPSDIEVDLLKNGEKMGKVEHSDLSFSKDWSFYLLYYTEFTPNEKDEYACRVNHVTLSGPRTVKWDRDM
Protocol: as §1

Binder	koff
B1	0.00045 s⁻¹
B2	0.00036 s⁻¹
B3	0.0012 s⁻¹
B4	0.00073 s⁻¹
B5	0.00058 s⁻¹
B6	9.4e-05 s⁻¹
B7	0.00024 s⁻¹
B8	0.0009 s⁻¹
B9	0.0029 s⁻¹
B10	0.0014 s⁻¹
B11	0.00062 s⁻¹
B12	0.00017 s⁻¹
B13	0.00071 s⁻¹
B14	0.001 s⁻¹
B15	0.00068 s⁻¹
B16	0.0024 s⁻¹

Binder	koff
B17	0.00084 s⁻¹
B18	0.0013 s⁻¹
B19	0.00053 s⁻¹
B20	9.7e-05 s⁻¹
B21	0.0009 s⁻¹
B22	0.0013 s⁻¹
B23	0.0018 s⁻¹
B24	0.0012 s⁻¹
B25	0.00038 s⁻¹
B26	0.00084 s⁻¹
B27	0.0013 s⁻¹
B28	0.0022 s⁻¹
B29	0.00064 s⁻¹
B30	0.001 s⁻¹
B31	0.00044 s⁻¹

What follows are binders tested against T1, human FcRn/b2M (assay: SPR pH 7.4;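 note: surface plasmon resonance kinetics, periplasmic extracts diluted 1:10 flowed over immobilized target at 25 °C, 120 s association then 600–3600 s dissociation, buffer with 150 mM NaCl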).
Protocol: as §1

Binder	koff
B1	0.02 s⁻¹
B2	0.025 s⁻¹
B3	0.18 s⁻¹
B4	0.033 s⁻¹
B5	0.032 s⁻¹
B6	0.0078 s⁻¹
B7	0.032 s⁻¹
B8	0.04 s⁻¹
B9	0.14 s⁻¹
B10	0.049 s⁻¹
B11	0.037 s⁻¹
B12	0.024 s⁻¹
B13	0.041 s⁻¹
B14	0.055 s⁻¹
B15	0.048 s⁻¹
B16	0.16 s⁻¹

Binder	koff
B17	0.033 s⁻¹
B18	0.045 s⁻¹
B19	0.071 s⁻¹
B20	0.0012 s⁻¹
B21	0.097 s⁻¹
B22	0.062 s⁻¹
B23	0.067 s⁻¹
B24	0.039 s⁻¹
B25	0.025 s⁻¹
B26	0.13 s⁻¹
B27	0.073 s⁻¹
B28	0.12 s⁻¹
B29	0.034 s⁻¹
B30	0.044 s⁻¹
B31	0.049 s⁻¹

What follows are binders tested against T2, cyno FcRn/b2M (assay: SPR pH 7.4;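 note: surface plasmon resonance kinetics, periplasmic extracts diluted 1:10 flowed over immobilized target at 25 °C, 120 s association then 600–3600 s dissociation, buffer with 150 mM NaCl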).
Protocol: as §1

Binder	koff
B1	0.013 s⁻¹
B2	0.019 s⁻¹
B3	0.083 s⁻¹
B4	0.028 s⁻¹
B5	0.026 s⁻¹
B6	0.0034 s⁻¹
B7	0.016 s⁻¹
B8	0.035 s⁻¹
B9	0.16 s⁻¹
B10	0.06 s⁻¹
B11	0.03 s⁻¹
B12	0.014 s⁻¹
B13	0.029 s⁻¹
B14	0.047 s⁻¹
B15	0.037 s⁻¹
B16	0.2 s⁻¹

Binder	koff
B17	0.036 s⁻¹
B18	0.054 s⁻¹
B19	0.042 s⁻¹
B20	0.00086 s⁻¹
B21	0.069 s⁻¹
B22	0.058 s⁻¹
B23	0.068 s⁻¹
B24	0.033 s⁻¹
B25	0.016 s⁻¹
B26	0.058 s⁻¹
B27	0.062 s⁻¹
B28	0.092 s⁻¹
B29	0.027 s⁻¹
B30	0.038 s⁻¹
B31	0.033 s⁻¹

The binders below were run against T1, human FcRn/b2M (assay: SPR off-rate; pH 7.4 vs pH 6.0;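 note: surface plasmon resonance with diluted periplasmic extracts flowed over ligand surfaces, 120 s association and 600–3600 s dissociation at 25 °C, running buffer containing 150 mM NaCl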).
Protocol: as §1

Binder	kd ratio pH 7.4/6.0
B1	26
B2	44
B3	54
B4	37
B5	43
B6	44
B7	57
B8	37
B9	36
B10	33
B11	43
B12	59
B13	39
B14	42
B15	44
B16	52

Binder	kd ratio pH 7.4/6.0
B17	33
B18	30
B19	59
B20	17
B21	51
B22	36
B23	30
B24	26
B25	45
B26	68
B27	41
B28	38
B29	44
B30	34
B31	46

Each binder was assayed against T2, cyno FcRn/b2M (assay: SPR off-rate; pH 7.4 vs pH 6.0;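 note: surface plasmon resonance with diluted periplasmic extracts flowed over ligand surfaces, 120 s association and 600–3600 s dissociation at 25 °C, running buffer containing 150 mM NaCl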).
Protocol: as §1

Binder	kd ratio pH 7.4/6.0
B1	28
B2	54
B3	69
B4	38
B5	45
B6	36
B7	68
B8	39
B9	55
B10	43
B11	48
B12	80
B13	41
B14	47
B15	54
B16	83

Binder	kd ratio pH 7.4/6.0
B17	43
B18	42
B19	79
B20	9
B21	77
B22	45
B23	38
B24	28
B25	43
B26	69
B27	48
B28	42
B29	42
B30	37
B31	75
